# Where a chain is given by its changes, count along the chain named. Numbers in names are those of the source.
# B1: F846C.1B2 (antibody, V domains shown)
# VH: QIQLVQSGPELKKPGETVKISCKASGYTFTNYGMNWVKQAPGKGLKWMGWINTYTGEPSYADDFKGRFAFSLETSASTAYLQINNLKNEDMATYFCARWGGYAGDYYAMDFWGQGTSVTVSS
# VL: NIWLTQSPSSLAVSAGEMVTMTCKSSQSVLYSSNQKNYLAWYQQKPGQSPKLLIYWASTRESGVPDRFTGSGSGTDFSLTISSVQAEDLAVYYCHQYLSSLTFGAGTKLELK
# notes: also called 846.1B2
# B2: F846C.1H12 (antibody, V domains shown)
# VH: B1 VH with Y32F, M91I, F111Y
# VL: NIMMTQSPSSLAVSAGQKVTMSCKSSQSVLYSSSQKNYLAWYQQKPGQSPKLLIYWASTRESGVPDRFSGSGSGTDFTLTISSVQPEDLAVYYCHQYLSSLTFGAGTKLELKR
# notes: also called 846.1H12
# B3: F846TC.16B5 (antibody, V domains shown)
# VH: B1 VH with S59A, A103D, F111Y
# VL: B2 VL with Q17E, S34N, S69T, P86A
# notes: also called 846T.16B5
# B4: F846C.2H3 (antibody, V domains shown)
# VH: B1 VH with A103D, F111Y
# VL: B1 VL with W3M, L4M, M18K, T22S, S78T, A86P
# notes: also called 846.2H3
# B5: F846TC.14A2 (antibody, V domains shown)
# VH: QIQLVQSGPELKKPGETVKISCKASGYTFTNYGMNWVKQAPGKGLKWMGWINTYTGEPTYAGDLKGRFAFSLETSASTAYLQINNLKNEDTATYFCVRYTMDYWGQGTSVTVSS
# VL: QAVVTQESALTTSPGETVTLTCRSSTGAVTTSNYANWVQEKPDHLFTGLIGGINNRVPGVPARFSGSLIGDKAALTITGAQTEDEAIYFCALWYSNHWVFGGGTKLTVL
# notes: anti-Gal3 antibody; also called 846T.14A2
# B6: F847C.10B9 (antibody, V domains shown)
# VH: QIQLVQSGPEVKKPGETVKISCKASGYIFTNYGMNWVKQAPGKGLKWMGWINTYTGEPTYTDDFKGRFAFSLETSASTAYLQINNLKNEDTATYFCAKFGNYVGAMDYWGQGTSVTVSS
# VL: DIRMTQSPSSLSASLGDTITITCHASQNINVWLSWYQQKPGNIPKLLIYKASNLHTGVPSRFSGSGSGTGFTLTISSLQPEDIATYYCQQGQSYPYTFGGGTKLELK
# notes: also called 847.10B9
# B7: F847C.12F12 (antibody, V domains shown)
# VH: B6 VH with V11L, I28T, T61V, Q82R
# VL: B6 VL with R3Q, M4V, T5I
# notes: anti-Gal3 antibody; also called 847.12F12; 84712F12
# B8: F847C.26F5 (antibody, V domains shown)
# VH: B6 VH
# VL: B6 VL with D1E, R3K, T5N
# notes: also called 847.26F5
# B9: F847.14H4 (847.14H4) (antibody, V domains shown)
# VH: QIQLVQSGPELTKPGETVKISCKASGYTFTDYGMNWVRQAPGETLKWMGWINTYTGEPTYADDFKGRFAFSLESSASTAYLQINNLKNEDVATYFCARYPMDYWGQGTSVTVSS
# VL: B5 VL with I53T, V57A, W98L
# notes: anti-Gal3 antibody
# B10: F847C.11B1 (antibody, V domains shown)
# VH: EVQLQQSGPELVKPGASVKISCKASGNTFTDHNMHWVKQSHGKSLEWIGYIYPYNGGTGYNQKFKSKATLTVDNSSSTVYMELRSLTSEDSAVYYCARGEYDYLAWFAYWGQGTLVTVSA
# VL: EIVLTQSPASLSVTTGEKVTIRCITSIDIDDDMNWYQQKPGEPPKLLISEGNTLRPGVPSRFSSSGYGTDFVFTIENTLSEDVADYYCLQSDNKPLTFGAGTKLELKR
# notes: anti-Gal3 antibody; also called 847.11B1
# B11: 4G2.2G6 (antibody, V domains shown)
# VH: QIQLVQSGPDLKKPGETVKISCKASGYTFTTYVMSWVKQAPGKDLKWMGWINTHSGVPTYADDFKGRFDFSLETSANTAFLQINNLKNEDTATYFCTRDGNDGDAMDNWGQGTSVTVSS
# VL: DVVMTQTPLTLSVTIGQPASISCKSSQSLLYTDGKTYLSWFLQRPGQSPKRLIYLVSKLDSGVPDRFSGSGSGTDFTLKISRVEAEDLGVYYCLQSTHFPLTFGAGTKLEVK
# B12: 3B11.2G2 (antibody, V domains shown)
# VH: QIQLVQSGPELKKPGETVKISCKTSGYKFKTYVMSWVKQAPGKALKWMGWINTYSGVPTYADDFKGRFAFSLETSASTAYLEIINLKNEDTATYFCARDGNYGDPMDYWGQGTSVTVSS
# VL: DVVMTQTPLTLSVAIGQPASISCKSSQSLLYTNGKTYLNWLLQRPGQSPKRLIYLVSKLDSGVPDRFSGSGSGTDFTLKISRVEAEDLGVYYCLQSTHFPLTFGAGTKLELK
# B13: 7D8.2D8 (antibody, V domains shown)
# VH: EVQLVESGGGLVKPGGSLKLSCAASGFTFSSYAMSWVRQTPEKRLEWVATISDGGIYTYYPDNVKGRFTISRDNAKNNLFLQMSHLKSEDTAMYYCVRDGGYWGQGTTLTVSS
# VL: DVLMTQTPLSLPVSLGDQASISCRSSQSIVHSNGNTYLEWYLQKPGQSPKLLIYKVSNRFSGVPDRFSGSGSGTDFTLKISRVEAEDLGVYYCFQGSHVPLTFGAGTKLELK
# B14: 15F10.2D6 (antibody, V domains shown)
# VH: B13 VH with T28A, I56V, P61T, N63H, K76E, N77D, F80Y
# VL: B13 VL with S32N, A105G
# B15: 13H12.2F8 (antibody, V domains shown)
# VH: QIQLVQSGPELKKPGETVKISCKASGYTFTTYGMSWVKQAPGKGLKWMGWINTYSGVPTYADDFKGRFAFSLETSASTAYLQINNLKNEDTATYFCAVPYEYDGAYWGQGTLVTVSA
# VL: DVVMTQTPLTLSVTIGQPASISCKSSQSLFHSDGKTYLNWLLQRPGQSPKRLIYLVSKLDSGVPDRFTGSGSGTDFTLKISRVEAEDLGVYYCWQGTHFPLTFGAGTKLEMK
# B16: 19D9.2E5 (antibody, V domains shown)
# VH: B15 VH with S35G, A76T, T91M, V98T
# VL: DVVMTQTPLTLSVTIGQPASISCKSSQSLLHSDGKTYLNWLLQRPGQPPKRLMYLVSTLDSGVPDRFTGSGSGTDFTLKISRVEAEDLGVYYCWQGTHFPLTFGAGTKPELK
# B17: 24D12.2H9 (antibody, V domains shown)
# VH: QVQLKQSGPGLVQPSQSLSITCTVSGFSLTSYGVHWVRQAPGKGLEWLGVIWSGGSTDYNAAFMSRLSISKDNSKSQVFFKMNSLQADDTAIYYCAKSPDGYDVAWFGYWGQGTLVTVSA
# VL: DIVMTQSHKFMSTSVGDRVSITCKASQDVRTAVAWYQQKPGQSPKLLIYWASTRHTGVPDRFTGSGSGTDFTLTLSNVQSEDLADYFCQQYSSYPWTFGGGTKLEIK
# B18: 4A11.2B5 (antibody, V domains shown)
# VH: QVQLQQSGPELVKPGASVKISCKASGYSFTNYYIHWVKQRPGQGLEWIGWIYPGSGNTNYNEKFKGKATLTADTSSSTTNMQLSSLTSEDSAVYYCSTAPGGFDVWGSGTTVTVSS
# VL: DIVMTQAAFSNPVTLGTSASISCRSSKSLLHSDGITYLYWYLQRPGQSPQLLIYRMSNLASGVPDRFSGSGSGTDFTLRISRVEAEDVGVYYCAQMLEFPLTFGAGTKLELK
# B19: F846C.1H5 (antibody, V domains shown)
# VH: EVQLLESGGGLVKPGGSLKLSCAASGFTFSSYAMSWVRQTPEKRLEWVASISSGGDTYYPDSVKGRFTISRDNARNILYLQMSSLRSEDTAMYYCASYGNSLFDYWGQGTTLTVSS
# VL: DVVMTQTPLSLPVSLGDQASISCRSSQSLVHNSGNTYLHWYLQRPGQSPNLLIYKVSNRFSGVPDRFSGSGSGTDFTLKISRVAAEDLGVYFCSQSTHVPPTFGGGTKLEIK
# notes: anti-Gal3 antibody; also called 846.1H5
# B20: F847C.4B10 (antibody, V domains shown)
# VH: EVQLVETGGGLVKPGGSLKLSCAASGFTFSSYAMSWVRQTPEKRLEWVASISSGGSTYYPDSVKGRFTISRDNARNILYLQMSSLRSEDTAMYYCTRFTTVVEMDYWGQGTSVTVSS
# VL: QAVVTQESALTTSPGETVTLTCRSSTGAVTTSNYANWVQEKPDHLFTGLIGGTNNRAPGVPARFSGSLIGDKAALTITGAQTEDEAIYFCALWYSNHLVFGGGTKLTVLR
# notes: anti-Gal3 antibody; also called 847.4B10
# Target: T1, Human GAL3 protein (TrueBinding, QCB200349 / QCB200352; R&D Systems, 8259-GA) (human, UniProt P17931 2-250)
# T1 construct: also called human galectin-3
# T1 sequence (P17931 2-250 limits assumed): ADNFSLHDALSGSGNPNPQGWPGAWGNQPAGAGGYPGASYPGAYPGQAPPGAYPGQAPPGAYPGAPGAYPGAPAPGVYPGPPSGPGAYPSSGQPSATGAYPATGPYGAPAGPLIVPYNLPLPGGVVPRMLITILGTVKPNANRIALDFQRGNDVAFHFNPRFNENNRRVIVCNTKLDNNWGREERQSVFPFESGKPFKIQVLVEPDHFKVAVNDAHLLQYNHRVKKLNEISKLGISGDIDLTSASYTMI
# Assay: blocking ELISA (GAL3 coated; antibody + biotinylated ITGb3)
row,Binder,percent blockade of GAL3-ITGb3 interaction
1,B1,> 90%
2,B2,> 90%
3,B3,> 90%
4,B4,> 90%
5,B5,> 90%
6,B6,> 90%
7,B7,> 90%
8,B8,> 90%
9,B9,< 10%
10,B10,< 10%

# Target: T2, Human Galectin-3 protein (Acro Biosystems, GA3-H5129) (human, UniProt P17931 2-250)
# T2 construct: Bought protein; also called Gal3-ECD-His; Gal3-His; not shown: linker-spaced 6-histidine tag
# T2 sequence (P17931 2-250): as the sequence (P17931 2-250 limits assumed) above
# Assay: SPR (Biacore T200), antibody captured, Galectin-3 as analyte
row,Binder,Kd
1,B11,< 1 nM
2,B12,< 1 nM
3,B13,2.49 nM
4,B14,2.06 nM
5,B15,6.07 nM
6,B16,< 1 nM
7,B17,4.13 nM
8,B18,5.22 nM

# Target: T2, Human Galectin-3 protein (Acro …)
# Assay: blocking ELISA (Gal3 coated; antibody 3 µg/mL + INSR)
Binder,"Gal3-INSR binding remaining, % of unblocked sample",reduction of Gal3-INSR binding (%)
B11,< 5%,–
B12,< 5%,–
B16,< 5%,–
B17,–,≤ 30%
B18,< 5%,–

# Target: T2, Human Galectin-3 protein (Acro …)
# Assay: ELISA, blocking of INSR binding to coated Gal3
row,Binder,Gal3-INSR Blocking @ 3 µg/mL
1,B11,100%
2,B12,96%
3,B13,75%
4,B14,82%
5,B15,97%
6,B16,100%
7,B17,22%
8,B18,100%

# Target: T1, Human GAL3 protein (TrueBinding, …)
# Assay: blocking ELISA (GAL3 coated; antibody + biotinylated ITGaV)
row,Binder,percent blockade of GAL3-ITGaV interaction
1,B1,> 90%
2,B3,> 90%
3,B4,> 90%
4,B5,> 90%
5,B6,> 90%
6,B7,> 90%
7,B8,> 90%
8,B9,< 30%
9,B10,< 30%

# Target: T1, Human GAL3 protein (TrueBinding, …)
# Assay: blocking ELISA (GAL3 coated; antibody + biotinylated ITGa3)
row,Binder,percent blockade of GAL3-ITGa3 interaction
1,B1,> 90%
2,B19,> 90%
3,B2,> 90%
4,B3,> 90%
5,B4,> 90%
6,B5,> 90%
7,B20,> 90%
8,B6,> 90%
9,B7,> 90%
10,B8,> 90%
11,B9,< 35%
12,B10,< 35%

# From US20230094463A1 (TRUEBINDING, published 2023)
